Results from US20200016266A1 (INIS BIOTECH, published 2020).
Substitutions are numbered along the chain they refer to. Read-outs that look alike come from different tables or passages of the source.

T1: PGECLRV
T1 construct: 7-mer of the Gal1 peptide array, axis label
T1 peptide: PGECLRV

T2: GLVASNL
T2 construct: 7-mer of the Gal1 peptide array, axis label
T2 peptide: GLVASNL

T3: QPGSVAEVCITFD
T3 construct: 13-mer of the Gal1 peptide array, axis label
T3 peptide: QPGSVAEVCITFD

T4: LPDGYEFKFPNRL
T4 construct: 13-mer of the Gal1 peptide array, axis label
T4 peptide: LPDGYEFKFPNRL

T5: NLGKDSN
T5 construct: 7-mer of the Gal1 peptide array, axis label
T5 peptide: NLGKDSN

T6: TFDQANLTVKLPD
T6 construct: 13-mer of the Gal1 peptide array, axis label
T6 peptide: TFDQANLTVKLPD

T7: VAPDAKS
T7 construct: 7-mer of the Gal1 peptide array, axis label
T7 peptide: VAPDAKS

B1: anti-Gal1 Clone 21, fully human monoclonal antibody (antibody, V domains shown)
VH: EVQLLESGGGLVQPGGSLRLSCAASGFTFSSYAMSWVRQAPGKGLEWVSEIGRVGVNTLYADSVKGRFTISRDNSKNTLYLQMNSLRAEDTAVYYCAKKATQFDYWGQGTLVTVSS
VL: DIQMTQSPSSLSASVGDRVTITCRASQSISSYLNWYQQKPGKAPKLLIYRASRLQSGVPSRFSGSGSGTDFTLTISSLQPEDFATYYCQQTIGPPDTFGQGTKVEIKR
notes: also called MAb21; Human Ab 21
B2: anti-Gal1 Clone 42, fully human monoclonal antibody (antibody, V domains shown)
VH: EVQLLESGGGLVQPGGSLRLSCAASGFTFSSYAMSWVRQAPGKGLEWVSGISGSGDYTSYADSVKGRFTISRDNSKNTLYLQMNSLRAEDTAVYYCAKGYGAFDYWGQGTLVTVSS
VL: B1 VL with R50G, R53W, T91S, I92A, G93N, P94Y, D96S
notes: also called MAb42; Human Ab 42

Assays:
[1] = molecular target: T8, Galectin-1 (human recombinant Gal1) (human, UniProt P09382 2-135, DyLight 594 label in the FRET assay only); assay: SPR, BIAEvaluation 3.0, 1:1 kinetic model
T8 construct: Recombinant Gal1 made in-house; also called rhGal1; 594-Gal1
Experimental: By using the BIAEvaluation 3.0 software in a kinetics model of interaction adjustment 1:1, kinetic parameters, constants of dissociation (Kd) and affinity (Ka) were calculated.

[2] = molecular target: T1, PGECLRV; assay: PEPperMAP conformational epitope mapping peptide array, fluorescence intensity [a.u.]
[3] = molecular target: T2, GLVASNL; assay: as above
[4] = molecular target: T3, QPGSVAEVCITFD; assay: as above
[5] = molecular target: T4, LPDGYEFKFPNRL; assay: as above
[6] = molecular target: T5, NLGKDSN; assay: as above
[7] = molecular target: T6, TFDQANLTVKLPD; assay: as above
[8] = molecular target: T7, VAPDAKS; assay: as above
[9] = molecular target: T1, PGECLRV; assay: as above
[10] = molecular target: T2, GLVASNL; assay: as above
[11] = molecular target: T3, QPGSVAEVCITFD; assay: as above
[12] = molecular target: T4, LPDGYEFKFPNRL; assay: as above
[13] = molecular target: T5, NLGKDSN; assay: as above
[14] = molecular target: T6, TFDQANLTVKLPD; assay: as above
[15] = molecular target: T7, VAPDAKS; assay: as above

T8 sequence (P09382 2-135 limits assumed): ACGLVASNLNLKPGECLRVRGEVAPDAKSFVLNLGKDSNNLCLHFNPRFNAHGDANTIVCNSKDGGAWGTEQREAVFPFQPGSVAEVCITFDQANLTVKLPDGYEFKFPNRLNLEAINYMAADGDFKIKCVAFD

| Binder | Ka [1] [M⁻¹] | Kd [1] [nM] | binding result [2] | binding result [3] | binding result [4] | binding result [5] | binding result [6] | binding result [7] | binding result [8] | binding result [9] | binding result [10] | binding result [11] | binding result [12] | binding result [13] | binding result [14] | binding result [15] |
| --- | --- | --- | --- | --- | --- | --- | --- | --- | --- | --- | --- | --- | --- | --- | --- | --- |
| B1 | 649000 | 1540 | no binding (tested: 10 µg/ml) | no binding (tested: 10 µg/ml) | no binding (tested: 10 µg/ml) | no binding (tested: 10 µg/ml) | no binding (tested: 10 µg/ml) | no binding (tested: 10 µg/ml) | no binding (tested: 10 µg/ml) |  |  |  |  |  |  |  |
| B2 | 7.63e+06 | 131 |  |  |  |  |  |  |  | no binding (tested: 10 µg/ml) | no binding (tested: 10 µg/ml) | no binding (tested: 10 µg/ml) | no binding (tested: 10 µg/ml) | no binding (tested: 10 µg/ml) | no binding (tested: 10 µg/ml) | no binding (tested: 10 µg/ml) |
